Measured values: doi:10.1101/2024.01.05.574302 (bioRxiv, 2024)
Values belong to the molecule of their own block, whether it stands above or below them.

B1: ASAP1 SH3 domain (aa. 1083-1147) (domain or fragment, mouse, UniProt Q9QWY8 1083-1147, looked up)
chain: GKNKVRRVKTIYDCQADNDDELTFIEGEVIIVTGEEDQEWWIGHIEGQPERKGVFPVSFVHILSD

Legend:
[1] = target: B1; assay: ITC
gAnkB aa. 1477-1792 = target: T1, gAnkB aa. 1477-1792 (human, UniProt Q01484 1477-1792); assay: ITC
T1 sequence (looked up): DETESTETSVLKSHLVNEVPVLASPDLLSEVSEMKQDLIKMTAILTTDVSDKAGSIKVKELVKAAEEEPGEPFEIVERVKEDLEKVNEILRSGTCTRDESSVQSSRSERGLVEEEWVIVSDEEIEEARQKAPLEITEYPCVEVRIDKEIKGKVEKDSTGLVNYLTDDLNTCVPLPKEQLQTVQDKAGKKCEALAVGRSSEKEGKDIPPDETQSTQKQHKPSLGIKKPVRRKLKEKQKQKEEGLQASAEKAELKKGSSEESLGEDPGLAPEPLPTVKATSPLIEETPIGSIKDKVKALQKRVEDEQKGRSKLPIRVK

Kd [1]: 8900 nM
Molecule: Clasp1 (from UniProt Q7Z460 1-1538) (natural protein)

Molecule: B1
Kd (gAnkB aa. 1477-1792): ~140 nM

Kd [1]: ~140 nM
Molecule: GIKKPVRRKLKE (peptide, UniProt Q01484 1699-1710, looked up) [gAnkB peptide (aa. 1699-1710)]

fold decrease of affinity against the wild-type gAnkB peptide [1]: ~3 fold
Molecule: GIKKGVRRKLKE (peptide, UniProt Q01484 1699-1710, looked up) [gAnkB peptide P1703G]

fold weakening of binding against the wild-type gAnkB peptide [1]: ~125 fold
Molecule: GIKKPVERKLKE (peptide, UniProt Q01484 1699-1710, looked up) [gAnkB peptide R1705E]

fold weakening of binding against the wild-type gAnkB peptide [1]: ~120 fold
Molecule: GIKEPVRRKLKE (peptide, UniProt Q01484 1699-1710, looked up) [gAnkB peptide K1702E]

Kd (gAnkB aa. 1477-1792): ~68 nM
B2: mouse ASAP2-SH3 (aa. 896-958) recombinant protein (domain or fragment, UniProt Q7SIG6 896-958, looked up)
chain: SKPKRVKALYNCVADNPDELTFSEGDVIIVDGEEDQEWWIGHIDGEPSRKGAFPVSFVHFIAD
